The values below come from the supplement of paper PMC12455559.

± gives the standard deviation of the averaged measurements.

Data set [1] is described as follows: purified protein yield per well (BCA); higher = higher soluble expression. A digest of the protocol:
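Values under 25 ug (0.1 mg/mL) are below the detection threshold. Purified protein yield per well was quantified with the Pierce Rapid Gold BCA kit after candidate enzymes, expressed in E. coli C41(DE3), were captured on Ni-charged magnetic beads and released by SUMO protease on an OT-2 robot. Cultures were 2 mL autoinduction with 100 µg/mL kanamycin, run 2 h at 37 °C and then 40 h at 18 °C.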

Data set [2] is described as follows: melting temperature (DSF); higher = more thermostable. A digest of the protocol:
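Enzymes made in E. coli C41(DE3) were nickel-bead purified and cut free with SUMO protease before testing. Differential scanning fluorimetry gave each melting temperature. For this, 5 μL 5X Sypro Orange was added to 45 μL enzyme (0 to 0.3 mg/mL) in sealed PCR plates, and a Bio-Rad CFX96 read fluorescence from 25 °C over 250 cycles of 0.3 °C each, ramping at 0.3 °C/s.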

Data set [3] is described as follows: PET hydrolysis, aromatic products released after 48 h (umol product/mg enzyme); higher = more PET depolymerization activity. An outline of the steps: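 Sealed plates containing 3.5 mg PET (amorphous film or crystalline powder), 450 μL buffer and 5 μg (50 μL) tagless candidate enzyme were held 48 h at 40 or 60 °C with no shaking. Supernatants were then read at 260 and 280 nm against buffer blanks. The aromatic product detected this way, per mg enzyme, defines PET hydrolysis activity.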

Where [4] appears, read: substrate: aFilm, 40 °C, pH 5.5.
Setting [5] is: substrate: aFilm, 40 °C, pH 6.5.
Setting [6] is: substrate: aFilm, 40 °C, pH 7.5.
[7] abbreviates: substrate: aFilm, 60 °C, pH 5.5.
[8] abbreviates: substrate: aFilm, 60 °C, pH 6.5.
The mark [9] stands for this setting: substrate: aFilm, 60 °C, pH 7.5.
Setting [10] is: substrate: cryPow, 40 °C, pH 5.5.
Setting [11] is: substrate: cryPow, 40 °C, pH 6.5.
Where [12] appears, read: substrate: cryPow, 40 °C, pH 7.5.
Setting [13] is: substrate: cryPow, 40 °C, pH 8.5.
The mark [14] stands for this setting: substrate: cryPow, 60 °C, pH 5.5.
Setting [15] is: substrate: cryPow, 60 °C, pH 6.5.
Setting [16] is: substrate: cryPow, 60 °C, pH 7.5.
Where [17] appears, read: substrate: cryPow, 60 °C, pH 8.5.
The mark [18] stands for this setting: substrate: aFilm, 40 °C, pH 4.5.
[19] abbreviates: substrate: aFilm, 60 °C, pH 4.5.
Where [20] appears, read: substrate: cryPow, 40 °C, pH 4.5.
Where [21] appears, read: substrate: cryPow, 60 °C, pH 4.5.

As to “ADTPYERGPNPSESLIEQRRGNYDIAQRSISRFSSDGFRNGTIYYPTDTSDGKFGVIAISPGYTAGESSIAWLGSRIASFGFVVVTINTTTRYDQPRQRSTQLLAALDHAMNDSVVGPLIDPERQAVMGHSMGGGGALQAAESRPEIDAVVALTPWNLKKNWDGVDAATLIIGAERDTVASVRTHSIPFYESLTQAEQRGYLELRGASHFAPNVSNTTIAKYSIAWMKRYLDNDDRYDQFLNPGPAVGYASGVSDYRLQ [DP003]”, the “purified protein yield per well” value in data set [1] was found to be 185 µg. Moreover, in data set [2], the melting temperature was determined as 42.4 C. For the same sequence, the PET hydrolysis is < 3 in data set [3] (setting [4]); < 3 in data set [3] (setting [5]); < 3 in data set [3] (setting [6]); 3 ± 4.2 in data set [3] (substrate: aFilm, 40 °C, pH 8.5); < 3 in data set [3] (setting [7]); < 3 in data set [3] (setting [8]). Moreover, the PET hydrolysis in data set [3] (setting [9]) is < 3; in data set [3] (substrate: aFilm, 60 °C, pH 8.5), < 3; in data set [3] (setting [10]), < 3; in data set [3] (setting [11]), < 3; in data set [3] (setting [12]), < 3; in data set [3] (setting [13]) it was < 3. The PET hydrolysis in data set [3] (setting [14]), in data set [3] (setting [15]), in data set [3] (setting [16]) and in data set [3] (setting [17]) was < 3 each time.

For the sequence “ADNPYQRGPDPTRASVAAVNGPFANTSVSVPTGYGFNGGRIYYPTDTSQGTFGAIAISPGYTALFSAELAWMGPWLASHGFVVIGIETNSRNDFDTARGTQLLAALDYLTQQSPVRDRVDPNRLAVSGHSMGGGGALSAAIRRSSLKAAVGITPYSPSQNLANDRVPTMVISGQADTVVTPSYALNLYNSLPASTESVYLEVAGGDHGFMVGRSNPVLIRTMLPFLKMFVDNDSRYSQFLCPLLDSSGVVTYRSTCPLLPTDPTTPPTGSPTPTPTTPPPSGSANEIIGTQSGRCVDVPNASRNNGTRVQLYDCNKQTNQSWTYTSNRQLRVYDNMCLDAAGSGNGAAIQIYTCHSGTNQQWNVNSNGTITGVQSGRCLDVWSSNNGAQIQLYDCHGQPNQQFRLAPLA [TEP010]”, in data set [1], the “purified protein yield per well” value stood at 269 µg. This sequence also gave a melting temperature in data set [2] of 62.8 C. Further, the PET hydrolysis in data set [3] (setting [18]), in data set [3] (setting [4]), in data set [3] (setting [5]), in data set [3] (setting [6]), in data set [3] (setting [19]) and in data set [3] (setting [7]) was < 3 in each case. The PET hydrolysis in data set [3] (setting [8]) was < 3; in data set [3] (setting [9]), < 3; in data set [3] (setting [20]), 13.5 ± 2.1; in data set [3] (setting [10]), 24; in data set [3] (setting [11]) it was 41 ± 1.4; in data set [3] (setting [12]), 27 ± 4.2. Further, the PET hydrolysis was < 3 in data set [3] (setting [21]), 6 ± 1.4 in data set [3] (setting [14]), 5 ± 1.4 in data set [3] (setting [15]) and 2 ± 2.8 in data set [3] (setting [16]).

As for “ADNPYQRGPDPTPASVGASRGTFATAQVSVPAGNGFGGGVIYYPTDTSQGRFGAVAVVPGYTATWAAEGAWMGPWLASFGFVVIGIDTNSRNDWDTARGTQLLAALDYLTQRSSVRDRVDASRAAVMGHSMGGGGAIYAALQRPSLKTTVGLAPFSASQTLNNMRVPTMLLAGQNDGTTTPASIRNYYGQVPSGVEKAYLELTGAGHGFPTSNNPTMMRNVIPWLKIFVDSDTRYTQFLCPLSNTNGIRSYESTCPLVPSPVPTDPPTSAPPTSTPPTTPPPTTPPPTTPAPGGPCAASYRTVNSWSGGFQGEVTVRAGGAPINGWTVRWTLGGGQSISQVWNGTLSTSGSTATVRNAPYNGSLPASGSTTFGFIANGSPSAPTLTCASP [TEP013]”, the “purified protein yield per well” value in data set [1] was 176 µg. The sequence also came in with a melting temperature in data set [2] of 64 C. Further, the PET hydrolysis in data set [3] (setting [18]), in data set [3] (setting [4]), in data set [3] (setting [5]), in data set [3] (setting [6]), in data set [3] (setting [19]) and in data set [3] (setting [7]) was < 3 throughout. In addition, the PET hydrolysis was < 3 in data set [3] (setting [8]); < 3 in data set [3] (setting [9]); < 3 in data set [3] (setting [20]); 5.5 ± 0.71 in data set [3] (setting [10]); 27 ± 1.4 in data set [3] (setting [11]); 53.5 ± 2.1 in data set [3] (setting [12]). Further, the PET hydrolysis in data set [3] (setting [21]) is < 3; in data set [3] (setting [14]), < 3; in data set [3] (setting [15]), 6 ± 1.4; in data set [3] (setting [16]) it was 10 ± 1.4.

Consider “ADNPYQRGPDPTQSSVSASRGTFATAQVGVPAGNGFGGGVIYHPTDTSQGTFGAVAIVPGYTATWAAEGAWMGHWLASFGFVVIGIDTNNRNDWDTARGTQLLAALDYLTQRSSVRDRVDPSRTAVMGHSMGGGGAMYAALQRPSLKTAVGLAPFSPSQNLTTTRVPTMLLSGQNDTTTTPASIVNLYNGIPSSVEKAYLELTGAGHGFPTSNNSTMMRNVIPWLKIFVDSDTRYTQFLCPLSDSNGIRTYQNTCPLVPSPVPTTTSTTSSTSTTTTSTTTTTTTSVPVGACSATYRTTNAWSGGYQGEVTVAAGDSAVNGWTVRWTLDSGQTISQVWNGTLSATGSAVSVRNASYNGSLRPGTSTTFGFIAGGAPSTPVLSCTSP [DP072]”, for which, in data set [1], the “purified protein yield per well” value is 89 µg. Besides, the melting temperature in data set [2] was 58 C. Further, the PET hydrolysis is < 3 in data set [3] (setting [10]); 8 in data set [3] (setting [11]); 24 in data set [3] (setting [12]); 32 in data set [3] (setting [13]); < 3 in data set [3] (setting [14]); < 3 in data set [3] (setting [15]). Moreover, the results for the PET hydrolysis in data set [3] (setting [16]) and in data set [3] (setting [17]) were < 3 and 3, respectively.

On to “ADNPYQRGPDPTVASVAATNGPFATAQLNVPSGNGFNGGTIYYPTDTSLGTWGAVAIVPGYTARFANEEAWMGPRLASFGFVVIGVETNSTTDWDTARGTQLLAALDYLTQKSSVRDRVDASRLAVIGHSMGGGGVVYAASQRPSLKAAIGLAPYAPSGNLSNVKVPMLIQGGQNDTVVTPSYLDGLYPTLPSSTPGAYVQYSGADHLFWTKANNIELRTQIPWLKIFLDNDTRYTQFMCPTLKDTASVAKYSAKCSLIPSAGSTTAPTTQPATSAPATTSPTTQPPSQPG [TEP083]”, for which the “purified protein yield per well” value in data set [1] is 356 µg. Further, the melting temperature in data set [2] came out at 64.3 C. Also, the PET hydrolysis in data set [3] (setting [18]), in data set [3] (setting [4]), in data set [3] (setting [5]), in data set [3] (setting [6]), in data set [3] (setting [19]) and in data set [3] (setting [7]) was < 3 throughout. Besides, the PET hydrolysis in data set [3] (setting [8]) was < 3; in data set [3] (setting [9]), < 3; in data set [3] (setting [20]) it was < 3; in data set [3] (setting [10]), 3 ± 4.2; in data set [3] (setting [11]), < 3; in data set [3] (setting [12]) it was < 3. The PET hydrolysis in data set [3] (setting [21]), in data set [3] (setting [14]), in data set [3] (setting [15]) and in data set [3] (setting [16]) was < 3 each time.
